What was measured:
VEGFR2 (dimer) = VEGFR2 (dimer) (Homo sapiens, UniProt P35968); experiment: global fit
VEGFR2 (monomer) = VEGFR2 (monomer) (Homo sapiens, UniProt P35968); experiment: global fit
Sequence of VEGFR2 (monomer) (P35968 20-1356): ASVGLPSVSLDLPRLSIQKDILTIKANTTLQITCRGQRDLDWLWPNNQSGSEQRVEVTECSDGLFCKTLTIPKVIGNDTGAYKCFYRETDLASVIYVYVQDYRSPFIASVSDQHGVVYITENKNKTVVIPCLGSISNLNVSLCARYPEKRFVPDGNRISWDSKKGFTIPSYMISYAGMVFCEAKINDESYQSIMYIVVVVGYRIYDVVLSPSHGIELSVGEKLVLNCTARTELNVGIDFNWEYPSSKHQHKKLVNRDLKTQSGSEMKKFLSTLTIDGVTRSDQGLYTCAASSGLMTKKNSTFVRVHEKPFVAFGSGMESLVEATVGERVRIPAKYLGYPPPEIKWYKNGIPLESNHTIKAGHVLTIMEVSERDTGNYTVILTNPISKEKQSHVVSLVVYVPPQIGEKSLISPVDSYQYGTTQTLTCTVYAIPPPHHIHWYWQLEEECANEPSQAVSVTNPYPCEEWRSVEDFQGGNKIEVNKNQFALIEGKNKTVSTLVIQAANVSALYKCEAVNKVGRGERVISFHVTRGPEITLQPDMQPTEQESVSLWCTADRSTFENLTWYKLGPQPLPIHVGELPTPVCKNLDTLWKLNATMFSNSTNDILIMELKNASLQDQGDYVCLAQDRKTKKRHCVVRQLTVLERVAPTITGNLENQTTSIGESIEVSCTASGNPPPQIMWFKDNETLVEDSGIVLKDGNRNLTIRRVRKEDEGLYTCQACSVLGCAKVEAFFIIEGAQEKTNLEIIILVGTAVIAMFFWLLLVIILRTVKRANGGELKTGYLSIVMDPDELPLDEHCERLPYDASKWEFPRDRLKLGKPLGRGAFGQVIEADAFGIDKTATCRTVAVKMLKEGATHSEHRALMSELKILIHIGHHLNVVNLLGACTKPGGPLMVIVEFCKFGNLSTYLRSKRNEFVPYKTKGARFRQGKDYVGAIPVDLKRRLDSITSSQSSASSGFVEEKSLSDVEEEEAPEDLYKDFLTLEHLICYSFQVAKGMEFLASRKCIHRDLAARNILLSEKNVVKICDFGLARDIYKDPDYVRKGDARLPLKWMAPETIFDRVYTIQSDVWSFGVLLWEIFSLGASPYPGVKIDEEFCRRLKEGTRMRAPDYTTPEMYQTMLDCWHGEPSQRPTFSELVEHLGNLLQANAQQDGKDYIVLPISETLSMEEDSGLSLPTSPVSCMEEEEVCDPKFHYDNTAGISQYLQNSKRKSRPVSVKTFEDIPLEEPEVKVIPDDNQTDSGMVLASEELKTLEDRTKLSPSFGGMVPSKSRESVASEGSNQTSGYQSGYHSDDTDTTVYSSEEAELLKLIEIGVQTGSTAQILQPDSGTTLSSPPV

Sequence of VEGFR2 (dimer) (P35968 20-1356): as above

Kd (VEGFR2 (dimer)): 0.23 nM
Kd (VEGFR2 (monomer)): 10 nM
B1: VEGF (protein)
chain: MTDRQTDTAPSPSYHLLPGRRRTVDAAASRGQGPEPAPGGGVEGVGARGVALKLFVQLLGCSRFGGAVVRAGEAEPSGAARSASSGREEPQPEEGEEEEEKEEERGPQWRLGARKPGSWTGEAAVCADSAPAARAPQALARASGRGGRVARRGAEESGPPHSPSRRGSASRAGPGRASETMNFLLSWVHWSLALLLYLHHAKWSQAAPMAEGGGQNHHEVVKFMDVYQRSYCHPIETLVDIFQEYPDEIEYIFKPSCVPLMRCGGCCNDEGLECVPTEESNITMQIMRIKPHQGQHIGEMSFLQHNKCECRPKKDRARQEKKSVRGKGKGQKRKRKKSRYKSWSVPCGPCSERRKHLFVQDPQTCKCSCKNTDSRCKARQLELNERTCRCDKPRR

— publication PMC6898792 (2019)
